Experiments:
[1] = system: inguinal white fat tissue and brown fat tissue; assay: Tissue respiration (Clark electrode) of minced adipose tissue; type: in vivo, Mus musculus; conditions: day 7 after adenovirus injection
Method: Tissue respiration was performed using a Clark electrode (Stathkelvin Instruments). Freshly isolated tissues were dissected from mice treated with LacZ or Slit2-C adenovirus for 7 days. Equally sized pieces of tissue were minced and placed in respiration buffer containing PBS supplemented with 2% (w/v) bovine serum albumin, 1% (w/v) glucose, and 1 mM Na pyruvate. Oxygen (O2) consumption was normalized to tissue weight. Cellular oxygen consumption rates were determined using an XF24 Extracellular Flux Analyzer (Seahorse Biosciences). Primary brown fat adipocytes were seeded at 15,000 cells/well, differentiation was induced the following day as previously described, and the cells were analyzed on day 5. On the day of analysis, the cells were washed once with Seahorse respiration buffer (8.3 g/l DMEM, 1.8 g/l NaCl, 1 mM pyruvate, 20 mM glucose, pen/strep), placed in 0.5 ml Seahorse respiration buffer, and incubated in a C02-free incubator for 1 hr. Port injection solutions were prepared as follows: oligomycin (1 μM final concentration), norepinephrine (1 μM final concentration), FCCP (0.2 μM final concentration), and rotenone (3 μM final concentration). Each cycle consisted of the following: mix 4 min, wait 0 min, and measure 2 min. Data are presented as S.E.M.

high fat diet-fed mice = assay: Whole body energy expenditure (CLAMS) and tissue weights; type: in vivo, Mus musculus
Method: (§1) Glucose tolerance tests were performed on mice 7 days post-injection with adenovirus. […] Animals were fasted overnight and then received intraperitoneal glucose at […]. Energy expenditure was analyzed using a Comprehensive Lab Animal Monitoring System (Columbus Instruments). Cold exposure and thermoneutrality experiments were performed in Balb/c mice at 4° C. or 30° C., respectively. Total levels of cholesterol, free fatty acids, triglycerides and insulin were measured at the Core Facility at Joslin Diabetes Center.

lean mice = assay: Tissue gene expression after intravenous delivery of adenovirus to lean mice; type: in vivo, Mus musculus
Method: All animal experiments were approved by the Institutional Animal Care and Use Committee of the Beth Israel Deaconess Medical Center. Mice (Mus musculus) were obtained from Jackson Laboratories, maintained in 12 hour light-lark cycles (6 a.m.-6 p.m.) at 22° C., and fed a standard irradiated rodent chow diet or a high-fat diet (60% fat) for 12-20 weeks. AAV-8 viruses (Penn Vector Core) and adenoviruses (Vector Biolabs or constructed in-house) were injected at a titer of 10^11 or 10^10 per mouse, respectively. All experiments were done with male mice. The aP2-PRDM16 transgenic mice have been previously described in Seale et al. (2011) J. Clin. Invest. 121:96-105. PRDM16-floxed mice were crossed with adiponectin-Cre and were maintained on a pure C57BL/6 background (Cohen et al. (2014) Cell 156:304-316). The Slit2-floxed mice have been described previously in Rama et al. (2015) Nat. Med. 21:483-491. Lean C57BL/6 mice were obtained from Jackson Laboratories and were […].
RNA was extracted from cultured cells or frozen tissue samples using TRIzol®, purified with QIAGEN RNeasy® minicolumns. Normalized RNA was reversed transcribed using a high-capacity cDNA reverse transcription lot (Applied Biosystems) and cDNA was analyzed by qRT-CPR. Relative mRNA levels were calculated using the comparative CT method and normalized to cyclophilin […]. All primers used are listed with their sequences in Table 3 as follows: […]
Slit2 full-length (untagged and Myc-DDK tagged) expression plasmids and corresponding LacZ control plasmids in adenovirus was purchased from Vector Biolabs. To construct the Slit2-N and Slit2-C ENTR clones, PCR primers were designed to amplify the signal peptide, N-terminal, and C-terminal Slit2 from mouse cDNA (OriGene MR227608). To construct the Slit2-N and Slit2-C ENTR clone, the Slit2N gene was amplified from mouse Slit2 cDNA to create PCR fragments corresponding to Slit2-signal peptide and Slit2-N that were ligated into the pENTR1a dual selection vector. The Slit2-C PCR fragment was sub-cloned into the pENTR1a vector containing the signal peptide. The Slit2-N and Slit2-C expression clones in which the fragments are fused to a C-terminal V5 tag were generated by performing the LR reaction between pENTR/D-TOPO-Slit2N or pENTR/D-TOPO-Slit2-C and pAD/CMV/V5-DEST (Life Technologies). The expression construct was cut with Pac and transfected into HEK-293A cells to produce crude adenoviral stock. Amplified virus was purified and concentrated using the Vivapure® adenopack 100 (Sartorius Stedim Biotech) and buffer exchanged to 10 mM Tris-Cl at pH 8.0, 2 mM MgCl2, 4% w/v sucrose. Adenovirus titer was calculated using an Adeno-X™ Rapid Titer kit (Clontech). For primary adipocytes a concentration of 10^8 pfu/well was used and 10^10 pfu/mouse were used for in vivo experiments. Expression levels of Slit2-N and Slit2-C were confirmed after 48 hours post infection by Western blot analysis using a V5 antibody (Life Technologies). Expression of Slit2-N and Slit2-C was performed by amplification from mouse Slit2 cDNA and ligated into the pENTR dual selection vector with a signal peptide sequence.

[2] = Plasma cholesterol, triglycerides and insulin; type: in vivo, Mus musculus; conditions: 7 days post-injection
Method: as §1

[3] = system: receptor tyrosine kinases and intracellular kinases; assay: Phosphokinase array in primary inguinal cells; type: cell-based, Mus musculus; conditions: Slit2-C vs lacZ adenovirus, primary inguinal adipocytes
Method: For Western blotting, homogenized tissues, whole cell lysates, or concentrated serum free conditioned medium were lysed in RIPA buffer containing protease inhibitor cocktail (Thermo Scientific) and phosphatase inhibitor cocktail (Thermo Scientific), separated by SDS-PAGE and transferred to Immobilon-P® membranes (Millipore). For Western blotting of plasma samples, 1 μl of plasma was prepared containing 2× sample buffer (Invitrogen) with reducing agent, boiled and analyzed using Western blot against V5, FLAG, or the indicated antibody. V5-antibody was from Life Technologies and anti-Flag M2-HRP (A8592) from Sigma Aldrich. Anti-Slit2 antibody used was from Abcam (Abcam ab134166). Phospho-PKA Substrate, phospho-PKC Substrate, phospho-ERK1/2, total ERK, phospho-AKT, total AKT, phospho-AMPK, total AMPK, phospho-ATGL, ATGL, phospho-EGFR and EGFR were from Cell Signaling. Protein array was from R&D Systems (Proteome Profiler Mouse Phospho-RTK Array Kit, ARY014). Silverstain (SilverQuest™ Silver Staining Kit, LC6070) was purchased from Thermo Fisher.

[4] = 16-week high fat diet-fed mice, Slit2-C adenovirus vs LacZ
[5] = lean mice, Slit2-C adenovirus, FIG. 6D
[6] = i.v. Slit2 adenovirus vs LacZ, lean mice, day 7, FIG. 4E

B1: Slit2-C: ~50 kDa C-terminal cleavage fragment of Slit2 beginning at TSP (SEQ ID NO: 22); adenovirally expressed or purified FLAG-tagged protein (protein, listed as Homo sapiens)
chain: TSPCDNFDCQNGAQCIIRINEPICQCLPGYLGEKCEKLVSVNFVNKESYLQIPSAKVRPQTNITLQIATDEDSGILLYKGDKDHIAVELYRGRVRASYDTGSHPASAIYSVETINDGNFHIVELLTLDSSLSLSVDGGSPKVITNLSKQSTLNFDSPLYVGGMPGKNNVASLRQAPGQNGTSFHGCIRNLYINSELQDFRKMPMQTGILPGCEPCHKKVCAHGMCQPSSQSGFTCECEEGWMGPLCDQRTNDPCLGNKCVHGTCLPINAFSYSCKCLEGHGGVLCDEEEDLFNPCQMIKCKHGKCRLSGVGQPYCECNSGFTGDSCDREISCRGERIRDYYQKQQGYAACQTTKKVSRLECRGGCAGGQCCGPLRSKRRKYSFECTDGSSFVDEVEKVVKCGCARCAS
modifications: FLAG tag
notes: adenovirally expressed or purified FLAG-tagged protein
In the case of B1, the “O2 consumption of inguinal tissue” value ([1]; did not reach significance) is reported as “elevated”, the “O2 consumption of BAT” value ([1]; reached significance) is reported as “elevated” and the body weight (high fat diet-fed mice; [4]) is reported as “no observable difference”. The food intake (high fat diet-fed mice; [4]) was “no observable difference”, the locomotor activity (high fat diet-fed mice; [4]) was “no observable difference” and the “respiratory exchange ratio (RER)” value (high fat diet-fed mice; [4]) was “no observable difference”. The whole-body oxygen consumption (high fat diet-fed mice; 16-week high fat diet-fed mice, Slit2-C adenovirus vs LacZ, normalized to total body weight) was “induced”, the “mass of the brown and inguinal depots” value (high fat diet-fed mice; day 7 post-injection, FIGS. 8F, 8I) was “reduction” and the “induction of Ucp1 mRNA in iWAT” value (lean mice; lean mice injected with Slit2-C adenovirus, FIG. 6C) was 3 fold. The “expression of mitochondrial genes (Atp5b, Uqcrb, Atp6vOa2, Atp9b, Cox5a) in BAT” value (lean mice; [5]) was “upregulation”, the “transcriptional regulators Prdm16, Nrf1, and Erra in classical brown fat” value (lean mice; [5]) was “significant changes” and the total plasma cholesterol ([2]; FIG. 9G) was “not affected”. For the same molecule, the plasma triglycerides ([2]; FIG. 9H) was “not affected”, the non-fasting insulin levels ([2]; FIG. 9I) was “not affected” and the “phospho-EGFR and phospho-ERK1/2 (only two of 39 kinases tested)” value [3] was “robust phosphorylation changes”.

B2: Slit2: Slit family secreted extracellular matrix protein, full length ~180 kDa; used as commercial recombinant protein or adenovirally expressed (protein)
chain: QACPAQCSCSGSTVDCHGLALRSVPRNIPRNTERLDLNGNNITRITKIDFAGLRHLRVLQLMENRISTIERGAFQDLKELERLRLNRNNLQLFPELLFLGTAKLYRLDLSENQIQAIPRKAFRGAVDIKNLQLDYNQISCIEDGAFRALRDLEVLTLNNNNITRLSVASFNHMPKLRTFRLHSNNLYCDCHLAWLSDWLRQRPRVGLYTQCMGPSHLRGHNVAEVQKREFVCSGHQSFMAPSCSVLHCPAACTCSNNIVDCRGKGLTEIPTNLPETITEIRLEQNSIRVIPPGAFSPYKKLRRLDLSNNQISELAPDAFQGLRSLNSLVLYGNKITELPKSLFEGLFSLQLLLLNANKINCLRVDAFQDLHNLNLLSLYDNKLQTVAKGTFSALRAIQTMHLAQNPFICDCHLKWLADYLHTNPIETSGARCTSPRRLANKRIGQIKSKKFRCSGTEDYRSKLSGDCFADLACPEKCRCEGTTVDCSNQRLNKIPDHIPQYTAELRLNNNEFTVLEATGIFKKLPQLRKINFSNNKITDIEEGAFEGASGVNEILLTSNRLENVQHKMFKGLESLKTLMLRSNRISCVGNDSFIGLGSVRLLSLYDNQITTVAPGAFDSLHSLSTLNLLANPFNCNCHLAWLGEWLRRKRIVTGNPRCQKPYFLKEIPIQDVAIQDFTCDDGNDDNSCSPLSRCPSECTCLDTVVRCSNKGLKVLPKGIPKDVTELYLDGNQFTLVPKELSNYKHLTLIDLSNNRISTLSNQSFSNMTQLLTLILSYNRLRCIPPRTFDGLKSLRLLSLHGNDISVVPEGAFNDLSALSHLAIGANPLYCDCNMQWLSDWVKSEYKEPGIARCAGPGEMADKLLLTTPSKKFTCQGPVDITIQAKCNPCLSNPCKNDGTCNNDPVDFYRCTCPYGFKGQDCDVPIHACISNPCKHGGTCHLKEGENAGFWCTCADGFEGENCEVNIDDCEDNDCENNSTCVDGINNYTCLCPPEYTGELCEEKLDFCAQDLNPCQHDSKCILTPKGFKCDCTPGYIGEHCDIDFDDCQDNKCKNGAHCTDAVNGYTCVCPEGYSGLFCEFSPPMVLPRTSPCDNFDCQNGAQCIIRINEPICQCLPGYLGEKCEKLVSVNFVNKESYLQIPSAKVRPQTNITLQIATDEDSGILLYKGDKDHIAVELYRGRVRASYDTGSHPASAIYSVETINDGNFHIVELLTLDSSLSLSVDGGSPKVITNLSKQSTLNFDSPLYVGGMPGKNNVASLRQAPGQNGTSFHGCIRNLYINSELQDFRKMPMQTGILPGCEPCHKKVCAHGMCQPSSQSGFTCECEEGWMGPLCDQRTNDPCLGNKCVHGTCLPINAFSYSCKCLEGHGGVLCDEEEDLFNPCQMIKCKHGKCRLSGVGQPYCECNSGFTGDSCDREISCRGERIRDYYQKQQGYAACQTTKKVSRLECRGGCAGGQCCGPLRSKRRKYSFECTDGSSFVDEVEKVVKCGCARCAS
With B2 the “energy expenditure, compared with Slit2-C experiments” value (high fat diet-fed mice; full-length Slit2 adenovirus, FIGS. 9A-9E) was “comparable results”, the “vascular and neuronal markers in fat or skeletal muscle” value (lean mice; 7 days postinjection, FIGS. 12D-12F) was “did not change” and the “induction of PRDM16 in brown fat” value (lean mice; i.v. Slit2 adenovirus) was “greater than 2 fold”. For the same molecule, the “other thermogenic genes or UCP1 protein in brown fat” value (lean mice; i.v. Slit2 adenovirus) was “without any changes”, the “induction of Ucp1 and Elovl3 in inguinal adipose tissue” value (lean mice; i.v. Slit2 adenovirus vs LacZ, day 7, FIG. 3F) was 2 fold and the “induction of Prdm16 in iWAT” value (lean mice; [6]) was 1.5 fold. The “induction of Ucp1 in iWAT” value (lean mice; [6]) was 2.5 fold, the “lipolysis or lipogenesis gene expression in the liver” value (lean mice; i.v. Slit2 adenovirus, FIG. 4A) was “No changes” and the “skeletal muscle gene expression of Glut1, Glut4 and Tnfa” value (lean mice; i.v. Slit2 adenovirus, FIG. 4B) was “no gene expression changes”. The “white fat selective genes, including Leptin and Resistin” value (lean mice; iWAT, i.v. Slit2 adenovirus, FIG. 4E) was “strongly suppressed”.

— patent US12702694B2, “Methods for identification, assessment, prevention, and treatment of metabolic disorders using SLIT2” (Dana-Farber Cancer Institute, Inc., priority 2015, dated 2026)
